# Measurements: IntAct's records for PubMed 16390871
# B1: Hsp90 co-chaperone Cdc37 (Schizosaccharomyces pombe (strain ATCC 38366 / 972)), O94740 (parent)
# chain: MAIDYSKWDKLELSDDSDIEVHPNVDKKSFIRWRQRDIHEKRAVRKQKMEDIKGAMAMNRRLLSRISEMETVLEKESPSDPYVLLGSFLEAKKSEDMDSAIPGGMSYHHMLMSLLKVIKDAEDTTEEKSMDDSDKCLRRLKSHKERLLKLLEDAQKEYDTLEAESKNYITSEDLHLGFDSTYVQKKEPEKPKKTKTKKETIQVIESLNNPTPPTDFPGAKEQASTGNAPKNPVNENESEDEEGLSLSEDGKKFANIDFGDYSSSEEFLKEHLNILADEEESDAILLEAFNAELEGKPSLAKQYVHQALLISYCRQLGPNGLSIFFQKIKDPNHQSQRLFLEDVHNTYVRIHERSAAISKEQAESGEGVEQIQLCAVDPNTKLSITIPEAGSTDPETQKARAAFESFPPNLQKALMTNDLDKINVVLGKMAVENAEEVVEKLSSTGMLSIEEGIIDTTKGETIPQLS
# Variants of: B1
# Settings: with cdk1_schpo cdc2, P04551
# cdk1_schpo cdc2, P04551, sequence (P04551 whole entry): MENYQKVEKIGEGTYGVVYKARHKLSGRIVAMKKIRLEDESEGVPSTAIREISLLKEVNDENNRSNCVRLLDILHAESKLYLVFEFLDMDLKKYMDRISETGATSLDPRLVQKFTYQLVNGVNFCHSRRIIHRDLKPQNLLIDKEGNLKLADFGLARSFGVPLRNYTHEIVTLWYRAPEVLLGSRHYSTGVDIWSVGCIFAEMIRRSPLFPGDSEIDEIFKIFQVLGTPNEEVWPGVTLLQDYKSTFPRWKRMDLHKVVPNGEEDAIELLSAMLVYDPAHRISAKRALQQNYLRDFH
row,effect of a mutation on the interaction,Variant
1,decreasing interaction,MAIDYSKWDKLELSDDSDIEVHPNVDKKSFIRWRQRDIHEKRAVRKQKMEDIKGAMAMNRRLLSRISEMETVLEKESPSDPYVLLGSFLEAKKSEDMDSAIPGGMSYHHMLMSLLKVIKDAEDTTEEKSMDDSDKCLRRLKSHKERLLKLLEDAQKEYDTLEAESKNYITSEDLHLGFDSTYVQKKEPEKPKKTKTKKETIQVIESLNNPTPPTDFPGAKEQASTGNAPKNPVNENESEDEEGLSLSEDGKKFANIDFGDYSSSEEFLKEHLNILADEEESDAIPLEAFNAELEGKPSLAKQYVHQALLISYCRQLGPNGLSIFFQKIKDPNHQSQRLFLEDVHNTYVRIHERSAAISKEQAESGEGVEQIQLCAVDPNTKLSITIPEAGSTDPETQKARAAFESFPPNLQKALMTNDLDKINVVLGKMAVENAEEVVEKLSSTGMLSIEEGIIDTTKGETIPQLS [L285P]
2,decreasing interaction,MAIDYSKWDKLELSDDSDIEVHPNVDKKSFIRWRQRDIHEKRAVRKQKMEDIKGAMAMNRRLLSRISEMETVLEKESPSDPYVLLGSFLEAKKSEDMDSAIPGGMSYHHMLMSLLKVIKDAEDTTEEKSMDDSDKCLRRLKSHKERLLKLLEDAQKEYDTLEAESKNYITSEDLHLGFDSTYVQKKEPEKPKKTKTKKETIQVIESLNNPTPPTDFPGAKEQASTGNAPKNPVNENESEDEEGLSLSEDGKKFANIDFGDYSSSEEFLKEHLNILADEEESDAILLDAFNAELEGKPSLAKQYVHQALLISYCRQLGPNGLSIFFQKIKDPNHQSQRLFLEDVHNTYVRIHERSAAISKEQAESGEGVEQIQLCAVDPNTKLSITIPEAGSTDPETQKARAAFESFPPNLQKALMTNDLDKINVVLGKMAVENAEEVVEKLSSTGMLSIEEGIIDTTKGETIPQLS [E287D]
